Biological target: the molecule itself
Test: SEC

B1: Mycobacterium tuberculosis orotate phosphoribosyltransferase (enzyme)
chain: MAGPDRAELAELVRRLSVVHGRVTLSSGREADYYVDLRRATLHHRASALIGRLMRELTADWDYSVVGGLTLGADPVATAIMHAPGRPIDAFVVRKSAKAHGMQRLIEGSEVTGQRVLVVEDTSTTGNSALTAVHAVQDVGGEVVGVATVVDRATGAAEAIEAEGLRYRSVLGLADLGLD
notes: also called MtOPRT; M. tuberculosis OPRTase
- stoichiometry N: 2

Source: publication PMC5430920 (Scientific Reports, 2017)
